In the supplement of paper PMC7125110:
± gives the standard error. Variants at the floor of the assay were thinned out.

B1: glmS ribozyme (parent)
chain: AUAAAAGCGCCAGAACUACAGAAAUGUAGUUGACGAGGAGGAGGUUUAUCGAAUUUUCGGCGGAUGCCUCCAAA

Variants of: B1
Assay: self-cleavage kobs at 2500 uM GlcN6P; higher = faster cleavage; RNA array
Settings: with glucosamine-6-phosphate
In short: (§1)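 A hybridised Cy3 probe tracked barcoded ribozyme variants, transcribed in situ by E. coli RNA polymerase on sequenced MiSeq chips, at 37 °C. The variants received 40 μM to 10 mM glucosamine-6-phosphate in HEPES/KCl/Mg(OAc)2 buffer. kobs came from decay fits and kcat and KM from weighted Michaelis–Menten fits.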

Row | Variant | self-cleavage kobs at 2500 uM GlcN6P [s⁻¹]
1 | AUAAAAGCGCCAGAACUACAGAAAUGUAGUUGACGAAGAAGAGGUUUAUCGAAUUAUCGGCGGAUGCCUCCAAA [G37A G40A U56A] | 0.000109 ± 1.8e-05
2 | AUAAAAGCGCCAGUAUUACAGAAAUGUAGUUGACGAGGAGGAGGUUGAUCGAAUUUUUGACGGAUGCCGCCAAA [A14U C16U U47G C58U G60A U69G] | 0.000102 ± 2.6e-05
3 | AUAAAAGCGCCAGAACUACAGAAAUGUAGUUGACGGGGAGGAGGUUUAUCGCAUUUUCGGCGGAUGCUUCCAAA [A36G A52C C68U] | < 1e-05
4 | ACAAAAGCGCCAGAACUACAGAAAUGUAGUUGACGAGGAGGAGGUUUAUCGACUUUUCGGCGGAUGCCUCCAAA [U2C A53C] | 0.00726 ± 0.0019
5 | AUAAAAGCGCCAGAACUACAGAAAUGUAGUUGACGAGGAGGUGGUUUAUCGAAUAUUCGUCGCAUGCCUCCAAA [A42U U55A G60U G63C] | < 1e-05
6 | AUAAAAGGGCCAGAACUACAGAAAUGUAGUUGACAAGGAGGACGUUUAUCGAAUUUUCGGCGGAUGCCGCCAAA [C8G G35A G43C U69G] | < 1e-05
7 | AUAAAAGCACCAGAACUACAGAAAUGUAGUUGACGAGGGGGAGGUUUAUCGCAUUUUCGGCGGAUGCCUCCAAA [G9A A39G A52C] | < 1e-05
8 | AUAAAAGCGCCAGAACUACAGAAAUGUAGUUGACGAGGAUGAGGUUUAUCCAAUUUUUGUCGGAUUCCUCCAAA [G40U G51C C58U G60U G66U] | < 1e-05
9 | AUAAAAGCGCCAGAACUACAGAAAUGUAGUUGACGAGGAGGAGGUUAAUCGAAUUUUCGGCGGAUGCGGCCAAA [U47A C68G U69G] | 7.59e-05 ± 3.7e-05
10 | AUAAAGGCGCCAGAACUACAGAAAUGUAGUUGACGAGGAGGAGGUUUAUCGAAUUUUCGGAGGAUGCCUCUAAA [A6G C61A C71U] | < 1e-05
11 | AUAAAAGCGCCAGAACUACAGAAAUGUAGUUGACGAGGAUGAGGUUUAUCGAAUUUUCGGCGGAUACCUUCAAA [G40U G66A C70U] | 0.0016 ± 0.00053
12 | AUAAAAGCGCUGGAGCUACAGAAAUGUAGUUGACGAGGAGGAGGUUUAUCGAAUUUUCGGCGGAUGCCUCCAAA [C11U A12G A15G] | 0.000326 ± 8.5e-05
13 | AUAAAAGCGCCAGAACUACAGAAAUGUAGUUUACGAGGAGGAGGUUUAUCGAAUUUUCGGCGGAUACCUACAAA [G32U G66A C70A] | 0.00086 ± 0.00036
14 | AUAAAAGCGCCAGAACUACAGAAAUGUAGUUGACGAGGAAGAGGUUCAUCGAAUUUUUGGCGGAUGCCUCCAAA [G40A U47C C58U] | < 1e-05
15 | AUAAAAGCGCAAGAACUACAGAAAUGUAGUUGACGAGGAGGAGGUUUAUCGAAUUAUCGGCGGAUGGCUCCAAA [C11A U56A C67G] | 5.5e-05 ± 1.8e-05
16 | AUAAAAGCGCCAGAACUACAGAAAUGUAGUUGACGAGGAGGGAGUUUAUCGAAUUUUCGGCUGAUGCCUCCAAA [A42G G43A G62U] | < 1e-05
17 | AUAAAAGCGCCAGUACUACAGAAAUGUAGUUGGCGAGGAUGAGGUUUAUCGAAUUAUCGGCGGAUGCCUCCAAA [A14U A33G G40U U56A] | < 1e-05

Row | Variant | self-cleavage kobs at 2500 uM GlcN6P [s⁻¹]
18 | AUAAAAGCGCCUGAACUACAGAAAUGUAGUUGACGAAGAGGAGGUUUAUCGAAUUUUCGGCGGAUGCCUGCAAA [A12U G37A C70G] | 0.00013 ± 3.4e-05
19 | AUAAAAGCGCCAGAACUACAGAAAUGUAGUUGACGAGGAGGAGGUUUAUCGAAUGUUCGGCGGAUGCCUUGAAA [U55G C70U C71G] | 7.27e-05 ± 1.7e-05
20 | AUAAAAGCGCCAGAACUACAGAAAUGUAGUUGACGAGGUGGGGGUUUAUCGAAUUUUCGGCGGUUGCCUCCAAA [A39U A42G A64U] | 5.16e-05 ± 2.2e-05
21 | AUAAAAGCGCCACAACUACAGAAAUGUAGUGGACGGGGAGGAGGUAUAUCGAAUUUUCGGCGGAUGCCUGCAAA [G13C U31G A36G U46A C70G] | < 1e-05
22 | AUAAAAGAGCCAGAAUUACAGAAAUGUAGUUGACGCGGAGGUGGUUUAUCGAAUUUUCGGCGGAUGCCUCCAAA [C8A C16U A36C A42U] | < 1e-05
23 | AUAAAAGCGCCCGUACUACAGAAAUGUAGUCGACGAGGAGGAGGUUUAUCGAAUUGUCGGCGGAUGCCUCCAAA [A12C A14U U31C U56G] | 0.0134 ± 0.0063
24 | AUAAAUACGCCAGAACUACAGAAAUGUAGUUGACGAGGAGGAGGUUUAUCGAAUUUUCGUCUGAGGCCUCCAAA [A6U G7A G60U G62U U65G] | < 1e-05
25 | AUAAAAGCGCCAGAACUACAGAAAUGUAGUUGACGAGGAGGAGGUUUAUCUAAUCUUCGGCAGAUCUCUCCAAA [G51U U55C G62A G66C C67U] | < 1e-05
26 | AUAAAAGCGCCUGAACUACAGAAAUGUAGUUGACGAGGAGGAGGUUUUUCGAAUUUUCGGCGGAUGCCUGCAAA [A12U A48U C70G] | 0.000115 ± 5e-05
27 | AUAAAAGCGCCAGAACUACAGAAAUGUAGUUGACGAGGAGGAAGUUUAUCGAAUUUUCGGCCGUUGCCUGCAAA [G43A G62C A64U C70G] | < 1e-05
28 | AUAAAAGCGCCAGAACUACAGAAAUGUAGUUGACGAGGGGUAGGUUUAUCGAAUUUUCGGCGGAUGCCACCAAA [A39G G41U U69A] | 5.05e-05 ± 2.2e-05
29 | AUAAAAGCCCCAGUACUACAGAAAUGUACUUGACGAGGAGGAGGUUUAUCGAAUUUUCGGCGGAUGCCUCCAAA [G9C A14U G29C] | < 1e-05
30 | AUAAAAGCGCCACAACUACAGAAAUGUAGUAGACGAGGAGGAGGUUUAUCGAGUUUUCGGCGGAUGCCUCCAAA [G13C U31A A53G] | 0.000107 ± 3.6e-05
31 | AUAAAAGCGCCACAACUACAGAAAUGUAGUUGACGAGGAGGAGGUUUAUCGAAUUUUCGGAGGAUGCGUCCAAA [G13C C61A C68G] | < 1e-05
32 | AUAAAAGCGCCAGCACUACAGAAAUGUAGGUGACGAGGAGGGGGUUUAUCGACUUUUCGGCGGAUGCCUCCAAA [A14C U30G A42G A53C] | 7.92e-05 ± 2.7e-05
33 | AUAAAAGCGCCAGCACUACAGAAAUGUAGUUGACGAGGAUGAGGUUUAUCGAGUUUUCGGCGGAUGCCUCCAAA [A14C G40U A53G] | 0.000325 ± 5.5e-05

Variants of: B1
Assay: self-cleavage kobs at 10000 uM GlcN6P; higher = faster cleavage; RNA array
Settings: with glucosamine-6-phosphate
In short: as §1

Row | Variant | self-cleavage kobs at 10000 uM GlcN6P [s⁻¹]
34 | AUAAAAGCGCUGGAGCUACAGAAAUGUAGUUGACGAGGAGGAGGUUUAUCGAAUUUUCGGCGGAUGCCUCCAAA [C11U A12G A15G] | 0.000749 ± 0.00017
35 | AUAAAAGCGCCUGAACUACAGAAAUGUAGUUGACGAAGAGGAGGUUUAUCGAAUUUUCGGCGGAUGCCUGCAAA [A12U G37A C70G] | 9.11e-05 ± 2.1e-05
36 | AUAAAAGCGCCAGAACUACAGAAAUGUAGUUGACGAGGAGGAGGUUUAUCGAAUGUUCGGCGGAUGCCUUGAAA [U55G C70U C71G] | 0.000142 ± 3.8e-05
37 | AUAAAAGCGCCACAACUACAGAAAUGUAGUAGACGAGGAGGAGGUUUAUCGAGUUUUCGGCGGAUGCCUCCAAA [G13C U31A A53G] | 0.000294 ± 5.7e-05
38 | AUAAAAGCGCCAGCACUACAGAAAUGUAGUUGACGAGGAUGAGGUUUAUCGAGUUUUCGGCGGAUGCCUCCAAA [A14C G40U A53G] | 0.000591 ± 0.0001
